Test results reported in patent publication US20050026841A1, “Hab18g/cd147 its antagonist and application” (priority 2001, published 2005).
Marks after values point to notes of the source that are not given here. Where no end group is shown, it is not given here.

B1: HAb18G/CD147: hepatocellular carcinoma-associated antigen of 269 amino acids, purified from HHCC cells by HAb18 affinity chromatography (protein, listed as Homo sapiens)
chain: MAAALFVLLGFALLGTHGASGAAGTVFTTVEDLGSKILLTCSLNDSATEVTGHRWLKGGVVLKEDALPGQKTEFKVDSDDQWGEYSCVFLPEPMGTANIQLHGPPRVKAVKSSEHINEGETAMLVCKSESVPPVTDWAWYKITDSEDKALMNGSESRFFVSSSQGRSELHIENLNMEADPGQYRCNGTSSKGSDQAIITLRVRTHLAALWPFLGIVAEVLVLVTIIFIYEKRRKPEDVLDDDDAGSAPLKSSGQHQNDKGKNVRQRNSS
B2: HAb18G/CD147 binding/antagonistic peptide (3) (peptide)
peptide: GHWHNHRHQAPL
B3: HAb18G/CD147 binding/antagonistic peptide (1) (peptide)
peptide: MTHDPVISLPTT
B4: HAb18G/CD147 binding/antagonistic peptide (9) (peptide)
peptide: YKLPGHHHHYRP
B5: HAb18G/CD147 binding/antagonistic peptide (6) (peptide)
peptide: YPFHHKHWHRPN
B6: HAb18G/CD147 binding/antagonistic peptide (4) (peptide)
peptide: KYPHQHLHMHDS
B7: HAb18G/CD147 binding/antagonistic peptide (2) (peptide)
peptide: LHRHSHGHSYKS
B8: HAb18G/CD147 binding/antagonistic peptide (8) (peptide)
peptide: MHKHPHGSQGPT
B9: HAb18G/CD147 binding/antagonistic peptide (5) (peptide)
peptide: IGWHYYLRTQHS
B10: HAb18G/CD147 binding/antagonistic peptide (7) (peptide)
peptide: ANIVPIHANHFQ

Tests used:
HHCCs = experiment: reconstituted basement membrane invasion assay with antagonistic peptides; format: cell-based, human; details: for inhibitory rate (%): invasion of HHCCs through reconstituted basement membrane, 20 hours, vs control; for inhibition of hepatocellular carcinoma cells invasion and metastasis (in words): reconstituted basement membrane invasion
Procedure: Matrigel (main component was type IV collagen, BD Company) was added onto the inner surface of Boyden Chambers (Millipore) to form the reconstituted basement membrane. Cells (HHCC cells and human fibroblasts) and antisense RNA were added and the chambers were put in the 24-well plates and co-cultured overnight. Cells infiltrated through the reconstituted basement membrane and appeared on the outer surfaces of the membrane were stained and counted under high-power microscope.
1. in vitro studies: reconstituted basement membrane invasion was employed to test the effects of the antagonistic peptides for HAb18G/CD147 on the invasive ability of HHCCs. Antagonistic peptides were co-cultured with HHCCs and fibroblasts on the reconstituted basement membrane for 20 hours. Cells infiltrated through the reconstituted basement membrane were counted under high-power microscope and the inhibitory rate of the antagonistic peptides was calculated.

HHCC cells = experiment: tumorigenesis of HHCC cells inoculated in mice; format: in vivo; details: i.v. 2.5 mg/kg; for inhibitory effect on tumorigenesis of hepatocellular carcinoma cells: 200 μl HHCC cells (1×10^6/ml)
Procedure: 2. in vivo studies: The mice were inoculated with 200 μl HHCC cells (1×10^6/ml) and were then treated with HAb18G/CD147 antagonistic peptides (i.v.) at the dose of 2.5 mg/kg weight. […] Moreover, the average survival time of mice in therapeutic group was two times as long as that of the control group. A high metastatic human hepatocellular carcinoma cell line MHCC97-H was transplanted into the liver of nude mice to investigate the anti-metastasis effects of APs. […] The inhibitory effects of HAb18G/CD147 antagonistic peptides on angiogenesis in chick embryo chorioallantoic membrane (CAM) as well as on angiogenesis induced by Matrigel plug were detected.

human fibroblasts = experiment: gelatin zymography of human fibroblasts stimulated by purified HAb18G/CD147; format: cell-based; details: MMP-9, MMP-2 and MT1-MMP
Procedure: The experiments were carried out as follows:
Purified HAb18G/CD147 was added to the cultured human fibroblasts and the supernatant of the culture was collected and then subjected to SDS-PAG electrophoresis in a separation gel containing 1 mg/ml gelatin. Different from the conventional SDS-PAGE, no DTT was added to the sample and furthermore, the sample was not boiled. After electrophoresis, the gel was washed twice (45 min/each time) at room temperature and washed twice (20 min/each time) with 0.1 mol/L NaCl, and then incubated for 24 hours in an incubation solution at 37° C. The gel was stained with 0.5% (w/v) Coomassie Blue and then destained. MMPs were detected as clear bands against a blue background.

[1] = target: T1, HAb18G/CD147 on HHCC hepatocellular carcinoma cells (human, UniProt P35613 140-385, glycosylated (mode not specified)); experiment: cell-based or functional assay
T1 sequence: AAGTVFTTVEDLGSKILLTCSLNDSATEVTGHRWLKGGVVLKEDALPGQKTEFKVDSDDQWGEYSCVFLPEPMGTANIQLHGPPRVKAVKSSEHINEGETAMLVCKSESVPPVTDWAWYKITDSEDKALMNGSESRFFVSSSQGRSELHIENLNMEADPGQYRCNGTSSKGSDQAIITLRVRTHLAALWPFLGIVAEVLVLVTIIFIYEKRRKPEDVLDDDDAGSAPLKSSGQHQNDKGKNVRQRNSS

Row | Molecule | inhibitory rate (%) (HHCCs) | inhibition of hepatocellular carcinoma cells invasion and metastasis (in words) (HHCCs) | infiltrative cells [1] [cells] | inhibitory rate (%) [1] [%] | also measured
1 | YKLPGHHHHYRP [AP-9, antagonistic 12-mer peptide for HAb18G/CD147] | 81.19^a % | significantly inhibited |  |  | 
2 | MHKHPHGSQGPT [AP-8, antagonistic 12-mer peptide for HAb18G/CD147] | 68.32^a % | significantly inhibited |  |  | 
3 | GHWHNHRHQAPL [AP-3, antagonistic 12-mer peptide for HAb18G/CD147] |  | significantly inhibited |  |  | 
4 | MTHDPVISLPTT [AP-1, antagonistic 12-mer peptide for HAb18G/CD147] | 78.2^a % | significantly inhibited |  |  | inhibitory effect on tumorigenesis of hepatocellular carcinoma cells (HHCC cells): significant inhibitory effects
5 | YPFHHKHWHRPN [AP-6, antagonistic 12-mer peptide for HAb18G/CD147] | 62.38^a % | significantly inhibited |  |  | inhibitory effect on tumorigenesis of hepatocellular carcinoma cells (HHCC cells): significant inhibitory effects; tumor formation on the 11th day from inoculation (HHCC cells; HHCC cells, tumors formed in all control mice): no tumor formed
6 | ANIVPIHANHFQ [AP-7, antagonistic 12-mer peptide for HAb18G/CD147] | 56.44^a % | significantly inhibited |  |  | 
7 | B1 |  |  |  |  | MMPs secreted by human fibroblasts after stimulation (human fibroblasts): secreted three different MMPs
8 | B2 |  |  | 2 | 90.1 | 
9 | B3 |  |  | 4.4 | 78.2 | 
10 | B4 |  |  | 3.8 | 81.2 | 
11 | B5 |  |  | 7.6 | 62.4 | 
12 | B6 |  |  | 12.2 | 39.6 | 
13 | B7 |  |  | 28 | -38.6 | 
14 | B8 |  |  | 6.4 | 68.3 | 
15 | B9 |  |  | 23.2 | -14.8 | 
16 | B10 |  |  | 8.8 | 56.4 | 
